Data: the supplement of paper PMC11865577

Legend:
Test in all cases: pull-down binding Z-score (relative to library population); higher = stronger binding
[1] = tested on: G-clamp-N3 (biotin conjugate); settings: RNA library: Library-1 (pre-miRNA loops + repeats)
Procedure, shortened: (§1)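 A heat-folded, dye-end-labelled (Cy5 or Cy3) RNA library (1 μg, phosphate/NaCl/KCl buffer) was exposed for 60 min at 25 °C to streptavidin beads holding 100 pmol of biotin-conjugated small molecule. RNA retained on the beads was eluted in hot SDS and hybridised to a DNA barcode microarray for 20 h at 55.5 °C. Binding scores were Z-scores against the library mean and standard deviation, calculated after subtracting beads alone and taking trimmed means of replicate probes.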

[2] = tested on: TO-3-N3 (biotin conjugate); settings: RNA library: Library-2
Procedure, shortened: as §1

[3] = tested on: TO-3-N3-2 (biotin conjugate); settings: RNA library: Library-2
Procedure, shortened: as §1

TO-N3 (biotin conjugate) = settings: RNA library: Library-2
Procedure, shortened: as §1

[4] = tested on: TO-N3-2 (biotin conjugate); settings: RNA library: Library-2
Procedure, shortened: as §1

Row | Sequence | pull-down binding Z-score [1] | pull-down binding Z-score [2] | pull-down binding Z-score [3] | pull-down binding Z-score (TO-N3 (biotin conjugate)) | pull-down binding Z-score [4]
1 | UAGAUGUUAUAAAAAUAUAUAUCUG [hsa-mir-4680] | 0.187 | -0.708 | -0.189 | -1.08 | -1.07
2 | AAAUCCGUGUUUGGACGCUUCUGGUA [hsa-mir-3936] | -0.453 | 0.678 | 0.653 | 0.923 | 0.681
3 | CCUUUGUGAGCAGUGUGACCCAAGGCCUGUGGACAGGG [hsa-mir-555] | 0.911 | -0.0854 | -0.351 | 0.241 | 1.15
4 | GAGACUUUGUGAUUUGUCUCCAAAGCCUC [hsa-mir-6862-2_6862-1] | -1.06 | 0.202 | -0.468 | 0.0513 | -0.157
5 | UUGGCACAGGGAAGCGAGUCUGCCAA [hsa-mir-195] | 2.53 | 0.0632 | 0.354 | 0.504 | 1.23
6 | CCAUUAUUGCUACUGUUCAGCAGGUGCUGCUGGUGGUGAUGG [hsa-mir-1260b] | -0.182 | 0.0654 | -0.25 | 0.244 | -0.182
7 | CAUAUGUAUGUAUGUAUGUCUGUUACACAUAUG [hsa-mir-3688-1] | -0.787 | -0.769 | -0.0225 | -0.818 | -0.421
8 | CAUGUGGUGGAACGAUGGAAACGGAACAUG [hsa-mir-218-2] | 1.07 | -0.477 | -0.027 | 0.162 | 1
9 | CUCGGGAGGCUGAG [hsa-mir-4419a] | 1.91 | -0.569 | -0.459 | -0.51 | 0.147
10 | CUUUAGCUAUUCUGAAUGCCUAAAG [hsa-mir-4662a] | -0.469 | -0.298 | -0.236 | -0.375 | -0.393
11 | AUGGAGGCUGCUUCUCCUCAGCAGCUGCCAUA [hsa-mir-3651] | 0.277 | -0.15 | -0.382 | -0.13 | 0.366
12 | AUUGUUGCCUCUGCAUGUUACAAU [hsa-mir-8066] | 0.523 | -0.204 | -0.512 | -0.485 | -0.665
13 | AAUUGGCUUUUACAAAAGACCAACU [hsa-mir-4798] | 0.914 | 0.117 | -0.259 | 0.0359 | -0.6
14 | GCCAGUCAGCGCUCACAUUAAGGCUGAC [hsa-mir-2277] | -0.612 | -0.289 | -0.0851 | -0.222 | 0.0682
15 | UUAGCCCAGCAAUGGGAGAGUGCUAA [hsa-mir-4636] | 0.508 | 0.252 | 0.32 | 0.111 | 0.154
16 | AGGAGGGUCC [hsa-mir-3141] | -0.0548 | 0.419 | 0.356 | 0.766 | 1.02
17 | GCUGGGGGUAAAUGACUUGCACAUGAACACAAC [hsa-mir-708] | -0.951 | -0.0277 | 0.191 | 0.304 | 0.578
18 | AAGCCCUACGAGAAACUGGGGUUUCUGGA [hsa-mir-765] | -1.01 | 0.529 | 0.277 | 0.686 | 0.503
19 | UUCUGUUGUCUGAAAGAAAAGAA [hsa-mir-1283-2] | 0.164 | -0.517 | -0.145 | -0.429 | -0.382

Row | Sequence | pull-down binding Z-score [1] | pull-down binding Z-score [2] | pull-down binding Z-score [3] | pull-down binding Z-score (TO-N3 (biotin conjugate)) | pull-down binding Z-score [4]
20 | GCUUUUCACCUGUGAUCCCAGGAGAGGAAGC [hsa-mir-646] | -0.741 | -0.299 | -0.0622 | -0.0302 | 0.422
21 | CUCGGCCAUCCUCCGUCUGCCCAG [hsa-mir-935] | -1.08 | -0.0566 | 0.13 | 0.473 | 1.16
22 | UGGGCAGUUCUUCUGCUGG [hsa-mir-1587] | 0.403 | 0.21 | 0.0756 | 0.149 | 0.377
23 | CGACUCCGUGGCAGAGUUCA [hsa-mir-3666] | -1.1 | 0.331 | -0.00234 | 0.805 | 0.845
24 | UGUUUCUUUAAUGAGGACGAAACA [hsa-mir-329-1] | 1.67 | 0.65 | 0.302 | 0.46 | -0.326
25 | GCUGGGGCGCGGGCUUUCGCUUUCAGUCGAGGGCUAGCGAGCGCAGC [hsa-mir-7846] | 1.79 | 0.914 | 0.105 | 1.12 | 1.12
26 | CCGCUAGUGGAAGAAGAUGGCGG [hsa-mir-6125] | 1.5 | 0.322 | 0.669 | 0.547 | 1.59
27 | UAUGCCUACAAAAUCCCUCCAGACUGGCAUA [hsa-mir-4666a] | -0.858 | -0.599 | -0.346 | -0.78 | -0.743
28 | AUUCUGGACACCAG [hsa-mir-147b] | -0.497 | 0.0367 | 0.387 | 0.311 | 0.326
29 | GAUUGGUUAGCCUAAGACUUGUUCUGAUCCAAUC [hsa-mir-5701-1_5701-2_5701-3] | -0.75 | 0.546 | 0.14 | 0.513 | 0.061
30 | CAUCACUGGAAUGUUCCAGCGACU [hsa-mir-3654] | -0.704 | -0.233 | -0.469 | -0.267 | -0.17
31 | CCAGUGCUGGGCUCAGACCCUGG [hsa-mir-150] | 0.197 | -0.0352 | -0.226 | 0.0645 | 0.701
32 | AAGACACUAUCUGACAACAACAGGGCUCUU [hsa-mir-550b-2] | 0.0423 | 0.681 | 0.201 | 0.93 | 0.234
33 | UCCUGAUGGUCCCCUCCCCAGGG [hsa-mir-185] | -1.02 | 0.122 | -0.187 | 0.275 | 0.784
34 | CCAAAUCAGAAAAGGAUUUGG [hsa-mir-4520-1] | 4.83 | -0.497 | -0.242 | -0.698 | -0.892
35 | AGUCUCUGAAGAGAGCUGUGGACUGA [hsa-mir-6721] | 1.18 | 0.726 | 0.732 | 0.839 | 0.916
36 | CUCACCAUAGUGGUGGA [hsa-mir-1288] | -1.2 | -0.33 | -0.646 | -0.412 | -0.588
37 | UGAGGUACUUCCUUC [hsa-mir-1205] | -0.28 | 0.111 | -0.247 | 0.104 | -0.169
